Results on two molecules are retold here after article PMC10203282, “Structural analysis of an endogenous 4-megadalton succinyl-CoA-generating metabolon” (Communications Biology, 2023).

The target of series [1] is dihydrolipoyl succinyltransferase (E2o) of the oxoglutarate dehydrogenase complex (Chaetomium thermophilum (endogenous in the native cell extract)). The series can be described thus: cryo-EM structure; native SEC fraction of C. thermophilum lysate, 0.3 mg/mL, single-particle analysis with octahedral symmetry; E2o core map at 3.35 Å.
Substrate in series [2]: CC(C)(COP(=O)(O)OP(=O)(O)OC[C@H]1O[C@@H](n2cnc3c(N)ncnc32)[C@H](O)[C@@H]1OP(=O)(O)O)[C@@H](O)C(=O)NCCC(=O)NCCS
The series can be described thus: cells, lysate or membranes. The class given is biochemical, Thermochaetoides thermophila. The note with it: native SEC fraction, 4 mM α-ketoglutarate, 3 mM NAD+, 2 mM ThDP, 2 mM MgCl2, 100 mM NaCl, 30 mM K2HPO4 pH 7.5, 37 °C, CoA 5-1000 µM, substrate excess inhibition, linear asymptote used.

As usually defined, the stoichiometry N is a count of units in the complex or per binding partner. For orientation: Km means the concentration of substrate that gives half-maximal velocity.

Consider “dihydrolipoyl succinyltransferase (E2o) of the oxoglutarate dehydrogenase complex (enzyme)”, for which the stoichiometry N in series [1] was found to be 24.

B1: OGDHc (E2o as CoA site) (Thermochaetoides thermophila DSM 1495) (protein)
chain: TYADKIIKVPQMAESITEGTLKQWNKAVGDYVEADEEIATIETDKIDVAVNAPEAGVIKEFFVNEEDTVLVGQDLVRLEVGGEKPAEAAKEQPKAAAPEPKVEEKKVPEAPAPEPSKTAAPAPAPPKQEAPASPKPASKPAETPAVTLGNREERRVKMNRMRLRIAERLKQSQNTAASLTTFNEVDMSALIEFRNKYKDEVLKKTGVKLGFMSAFSRAVVLAIRDLPVVNASIEGPNGGDTIVYRDYVDISVAVATEKGLVTPVVRNAETMDLITIEKTIAELGKKARDGKLTIEDMAGGTFTISNGGVFGSLMGTPIINLPQSAVLGLHAIKERPVAVNGKVEIRPMMYLALTYDHRLLDGREAVQFLVKVKEYIEDPRKMLL
notes: same complex as P1: endogenous native OGDHc in SEC fraction 6 of cell extract; with 2-oxoglutarate dehydrogenase, mitochondrial; Dihydrolipoyl dehydrogenase, mitochondrial; Alpha-ketoglutarate dehydrogenase subunit 4, mitochondrial
For B1, in series [2], the Km was 22.81 ± 11.93 µM.
